Patent US20160280799A1
Where a chain is given by its changes, count along the chain named.

B1: building block of RSV407 (monovalent) (VHH)
VHH: EVQLVESGGGLVQAGGSLSISCAASGGSLSNYVLGWFRQAPGKEREFVAAINWRGDITIGPPNVEGRFTISRDNAKNTGYLQMNSLAPDDTAVYYCGAGTPLNPGAYIYDWSYDYWGRGTQVTVSS
B2: 203-B12 (VHH)
VHH: EVQLVESGGGLVQPGGSLRLSCAASGFTFSSYAMGWVRRAPGEGLEWVSSISSGGALPTYADSVKGRFTISRDNVKNTLYLQMNSLKPEDTAVYSCEKYAGSMWTSERDAWGQGTQVTVSS
B3: 203-H9 (VHH)
VHH: EVQLVESGGGLVQPGGSLRLSCTGSGFTFSSYWMDWVRQTPGKDLEYVSGISPSGGNTDYADSVKGRFTISRDNAKNTLYLQMNSLQPEDTALYYCRRSLTLTDSPDLRSQGTQVTVSS
B4: 202-C8 (VHH)
VHH: B3 VHH with G56S, Q87K

How the values were obtained:
[1] = substrate: F protein of RSV (Long strain) (human respiratory syncytial virus, Long strain) (UniProt P12568); test: cell-based or functional assay
[2] = target: hemagglutinin (HA) of A/Vietnam/1194/04 (H5N1) on MLV(HA) pseudotyped virions (influenza A virus A/Vietnam/1194/04 (H5N1))

Chain of F protein of RSV (Long strain) (human respiratory syncytial virus, Long strain) (P12568 26-574): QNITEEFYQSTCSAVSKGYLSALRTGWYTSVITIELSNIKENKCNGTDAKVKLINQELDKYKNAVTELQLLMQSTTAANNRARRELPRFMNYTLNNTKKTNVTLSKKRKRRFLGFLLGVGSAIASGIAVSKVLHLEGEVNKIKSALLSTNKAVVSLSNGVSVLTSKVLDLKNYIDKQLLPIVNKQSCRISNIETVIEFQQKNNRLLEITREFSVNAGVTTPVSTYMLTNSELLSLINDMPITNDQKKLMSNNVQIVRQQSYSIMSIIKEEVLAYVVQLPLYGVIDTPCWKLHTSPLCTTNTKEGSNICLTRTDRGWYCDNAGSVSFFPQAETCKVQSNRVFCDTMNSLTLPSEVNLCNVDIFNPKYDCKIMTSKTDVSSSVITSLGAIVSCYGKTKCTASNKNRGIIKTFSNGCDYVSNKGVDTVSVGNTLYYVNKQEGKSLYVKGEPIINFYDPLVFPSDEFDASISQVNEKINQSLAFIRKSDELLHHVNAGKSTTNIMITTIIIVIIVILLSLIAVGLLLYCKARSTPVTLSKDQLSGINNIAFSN

Binder | IC50, neutralization of RSV infection, Long strain [1] | IC50 (read off the curve) [2]
B1 | 50 to 100 nM | 
B2 |  | 10 nM
B3 |  | 8 nM
B4 |  | 10 nM
